“And” between values parts separate entries of the source, which are not always exact repeats. Equal values may be shown once.
Target: M144 mutant NS1A protein (L-to-A substitution at position 144) (influenza A/Udorn/72 virus) (UniProt P03495)

For “GST-F2F3 (GST fusion of CPSF30 amino acids 61-121, second and third zinc fingers)”, the percent of wild-type binding (% of wild-type binding) was 5 and 10.

— patent publication US20100107264A1
